Assay [1] has as its target HLA-A*0301 (human). As to the kind of experiment: competition with 125I probe peptide, purified HLA. Particulars: remark: other sources report otherwise.
The target of assay [2] is HLA-A*0201 (human). Briefly: competition vs 125I probe peptide, purified HLA. The note with it: remark: other sources report otherwise.
Assay [3] addresses HLA-A*2401 (human). Briefly: inhibition of 125I-labelled standard peptide binding to purified HLA.
The target in assay [4] is HLA-A2401 (human). Briefly: inhibition of 125I probe peptide binding to purified HLA.
Assay [5] deals with HLA-A*0201 (human). As to the kind of experiment: inhibition of 125I-probe binding to purified HLA-A*0201. Particulars: remark: other sources report otherwise.
Assay [6] concerns the target HLA-A*3301 (human). Briefly: competition with 125I probe peptide, purified HLA. The note with it: remark: other sources report otherwise.
For assay [7], the target named is HLA-B*5101 (human). Briefly: competition vs 125I probe peptide, purified HLA. The note with it: remark: other sources report otherwise.
Assay [8] concerns the target HLA-A*3101 (human). As to the kind of experiment: competition with 125I probe peptide, purified HLA. The note with it: remark: other sources report otherwise.
The target in assay [9] is HLA-A*1101 (human). As to the kind of experiment: competition with 125I probe peptide, purified HLA. The note with it: remark: other sources report otherwise.
For assay [10], the target named is HLA-A*6801 (human). Briefly: competition with 125I probe peptide, purified HLA. Particulars: remark: other sources report otherwise.
In assay [11] the target is HLA-A*0201 (human). As to the kind of experiment: competition with 125I probe peptide, purified HLA. The note with it: remark: other sources report otherwise.
The target in assay [12] is HLA-B*0702 (human). Briefly: competition vs 125I probe peptide, purified HLA. Particulars: remark: other sources report otherwise.

The record followed here is US20040053822A1.

Broadly, the IC50 is the concentration at which inhibition is half-maximal. A low value points to inhibition by little substance. Regarding YFFPVIFSK [MAGE3.138 9-mer …], the IC50 in [1] was determined as 5000 nM.
For YLQLVFGIEV [MAGE2.157 …], in assay [2], the half-maximal inhibitory concentration (IC50) worked out at 50 nM.
As to VFEGREDSIL [MAGE3 230-239 (position 230, 10 amino acids)], the relative binding ratio (IC50 standard peptide / IC50 test peptide) in [3] was -0.0005.
In the case of IFATCLGL [MAGE3 peptide, position 177, 8 amino acids], in assay [4], the relative binding ratio (IC50 standard/IC50 peptide) turned out to be 0.012.
With IWEELSVL [MAGE3 221-228 (position 221, 8 amino acids)], the relative binding ratio (IC50 standard peptide / IC50 test peptide) in assay [3] was -0.0004.
The same measure, in the same setting: the result for QYFFPVIF [MAGE3 144-151 (position 144, 8 amino acids)] reads 0.12; that for HFVQENYL [MAGE3 249-256 (position 249, 8 amino acids)], -0.0004.
Consider YLQLVFGIEV [MAGE2.157 (10-mer)], for which the 50% inhibitory concentration (IC50) in assay [5] is under 500 nM.
Regarding NWQYFFPVIF [MAGE3 peptide, position 142, 10 amino acids], the relative binding ratio (IC50 standard/IC50 peptide) in assay [4] was 0.017.
With SYDGLLGDNQI [MAGE3 peptide, position 185, 11 amino acids], the relative binding ratio (IC50 standard/IC50 peptide) in assay [4] came out at 0.0026.
As for SMLEVFEGR [MAGE2.226 9-mer …], the IC50 in [6] stood at 9 nM.
Turning to EMLGSVVGNW [MAGE3 peptide, position 134, 10 amino acids], the relative binding ratio (IC50 standard/IC50 peptide) in assay [4] is 0.0017.
As to KMVELVHFL [MAGE2.112 (9-mer)], the concentration for half-maximal inhibition (IC50) in assay [5] is under 500 nM.
Take NWQYFFPVIF [MAGE3 142-151 (position 142, 10 amino acids)]: in assay [3], the relative binding ratio (IC50 standard peptide / IC50 test peptide) is 0.017.
For LYIFATCLGL [MAGE3 peptide, position 175, 10 amino acids], in assay [4], the relative binding ratio (IC50 standard/IC50 peptide) came to 0.048.
Regarding IFATCLGL [MAGE3 177-184 (position 177, 8 amino acids)], the relative binding ratio (IC50 standard peptide / IC50 test peptide) in assay [3] came to 0.012.
Molecule VPISHLYILI [MAGE2.170.110 …] had an IC50 in assay [7] of 50 nM.
The molecule ALIETSYVK [MAGE2.277 9-mer …] had an IC50 in [8] of 900 nM.
With SYDGLLGDNQI [MAGE3 185-195 (position 185, 11 amino acids)], the relative binding ratio (IC50 standard peptide / IC50 test peptide) in [3] is 0.0026.
In turn, SVFSTTINK [MAGE2.69.V2K9 …] displayed a half-inhibitory concentration (IC50) in assay [1] of 20 nM.
VPISMLYIL [MAGE2.170.M5 …] had an IC50 in assay [7] of 70 nM.
TVINYTLWK [MAGE2.73.V2K9 …] registered an IC50 in assay [8] of 9000 nM.
For the molecule IFSKASSSL [MAGE3 peptide, position 150, 9 amino acids], the relative binding ratio (IC50 standard/IC50 peptide) in [4] was found to be 0.016.
In the case of IFSKASSSL [MAGE3 150-158 (position 150, 9 amino acids)], in [3], the relative binding ratio (IC50 standard peptide / IC50 test peptide) came to 0.016.
Still for that read-out and setting: the result for LYIFATCL [MAGE3 175-182 (position 175, 8 amino acids)] reads 0.014; that for VFEGREDSI [MAGE3 230-238 (position 230, 9 amino acids)], -0.0004.
Turning to KMVELVHFL [MAGE2.112 …], in assay [2], the half-inhibitory concentration (IC50) is 9.8 nM.
In assay [9], YVFPVIFSK [MAGE3.138.V2 …] showed an IC50 of 3 nM.
As to LVHFLLLK [MAGE2/3.116 8-mer LVHFLLLK], the 50% inhibitory concentration (IC50) turned out to be 400 nM in [10] and 40 nM in assay [9].
Regarding LYIFATCLGL [MAGE3 175-184 (position 175, 10 amino acids)], the relative binding ratio (IC50 standard peptide / IC50 test peptide) in [3] came out at 0.048.
Take LYIFATCL [MAGE3 peptide, position 175, 8 amino acids]: the relative binding ratio (IC50 standard/IC50 peptide) in assay [4] came out at 0.014.
As to YLQLVFGIEV [MAGE2.157 10-mer …], the IC50 in assay [11] was 50 nM.
QYFFPVIF [MAGE3 peptide, position 144, 8 amino acids]: the relative binding ratio (IC50 standard/IC50 peptide) in assay [4] is 0.12.
Take EMLGSVVGNW [MAGE3 134-143 (position 134, 10 amino acids)]: the relative binding ratio (IC50 standard peptide / IC50 test peptide) in assay [3] amounted to 0.0017.
On to YVFPVIFSR [MAGE3.138.V2R …], for which, in [8], the half-inhibitory concentration (IC50) worked out at 6 nM.
YPLWSQSI [MAGE3.77.I8 YPLWSQSI] returned an IC50 in [12] of 60 nM.
In the case of NYPLWSQSY [MAGE3 76-84 (position 76, 9 amino acids)], the relative binding ratio (IC50 standard peptide / IC50 test peptide) in assay [3] amounted to 0.027.
As to LLGDNQIMPK [MAGE1/3.189 10-mer …], the IC50 in assay [1] came out at 500 nM.
Take LVHFLLLKY [MAGE2/3.116 9-mer …]: the 50% inhibitory concentration (IC50) in [10] stood at 8000 nM.
